Measured values published in patent US9359622B2, “Method for biotechnological production of dihydrochalcones” (Symrise AG, priority 2012, dated 2016).

Key:
[1] = substrate: O=C(/C=C/c1ccc(O)cc1)c1c(O)cc(O)cc1O; assay: Characterisation of the enzyme activity of the CHI following expression of the vector pET28b_CHI in E. coli; format: biochemical, Eubacterium ramulus DSM 16296; conditions: other: CHI expressed from pET28b_CHI in E. coli; substrate not given
Text: Following expression of for example pET28b_CHI in E. coli (see above) CHI can be established both in the soluble and in the insoluble fractions.
Following purification with for example anion exchange chromatography, hydrophobic interaction chromatography, size exclusion chromatography and/or Resource Q purification the CHI can be isolated for characterization (FIG. 5 provides examples of the results of the individual purification steps following expression of the vector pET28b_CHI in E. coli).
The values in the table in Table 6 show (further) results of the chalcone isomerase activity of the expressed CHI, obtained by photometric determination (at 368 nm) in relation to the degradation of naringenin chalcone (to form […]).
(§1) A photometric determination allowed—for further investigation of the CHI activity—the reduction over time in the concentration of naringenin chalcone in a cell-free protein crude extract to be observed.

[2] = Activity measurements for determination of the pH optimum of CHI; format: biochemical
Text: (§2) For the purposes of the present invention especially preferred is the use of a chalcone isomerase, having one, several or all the following characteristics and/or a temperature and pH stability according to Tables 1-3:
as §1

[3] = Activity measurements for determination of the temperature optimum for CHI; format: biochemical
Text: as §2, §1

[4] = Temperature stability of CHI; format: biochemical
Text: as §2, §1

B1: Eubacterium ramulus DSM 16296 chalcone isomerase (CHI), wild type, SEQ ID NO:3 (Eubacterium ramulus) (protein)
chain: MADFKFEPMRSLIYVDCVSEDYRPKLQRWIYKVHIPDSISQFEPYVTKYAFYPSFPIPPQGDRFGYARMQLTEHHWLVSDLDPRLEIKAIAETFPMDVLVWQGQIPAAAHTDAQIDSDGDAGNAARKSNNAEGNPFIFAFLPMWWEKDLKGKGRTIEDGANYRFNMTIGFPEGVDKAEGEKWLFEKVVPILQAAPECTRVLASAVKKDINGCVMDWVLEIWFENQSGWYKVMVDDMKALEKPSWAQQDAFPFLKPYHNVCSAAVADYTPSNNLANYRGYITMR
Km [1]: 36.83 µmol/L
Vmax [1]: 107 µmol/min/mg
kcat [1]: 417 s⁻¹
kcat/Km [1]: 1.13e+07 M⁻¹ s⁻¹
Spec. activity ([2]; pH value 6.13): 82.07 U/mg
Spec. activity ([2]; pH value 6.35): 163.43 U/mg
Spec. activity ([2]; pH value 6.4): 177.59 U/mg
Spec. activity ([2]; pH value 6.55): 169.79 U/mg
Spec. activity ([2]; pH value 6.8): 185.86 U/mg
Spec. activity ([2]; pH value 6.93): 175.37 U/mg
Spec. activity ([2]; pH value 7.12): 174.86 U/mg
Spec. activity ([2]; pH value 7.45): 173.01 U/mg
Spec. activity ([2]; pH value 7.7): 168.79 U/mg
Spec. activity ([2]; pH value 8): 152.55 U/mg
Spec. activity ([3]; 30° C.): 373.47 U/mg
Spec. activity ([3]; 37° C.): 795.04 U/mg
Spec. activity ([3]; 40° C.): 887.73 U/mg
Spec. activity ([3]; 45° C.): 1133.38 U/mg
Spec. activity ([3]; 50° C.): 748.66 U/mg
Spec. activity ([3]; RT (23° C.)): 158.39 U/mg
Spec. activity ([4]; 25° C., 0 h): 188.56 U/mg
Spec. activity ([4]; 25° C., 0.5 h): 136.70 U/mg
Spec. activity ([4]; 25° C., 1 h): 141.10 U/mg
Spec. activity ([4]; 25° C., 2 h): 152.08 U/mg
Spec. activity ([4]; 25° C., 4 h): 152.48 U/mg
Spec. activity ([4]; 25° C., 6 h): 146.46 U/mg
Spec. activity ([4]; 25° C., 24 h): 116.37 U/mg
Spec. activity ([4]; 30° C., 0 h): 188.56 U/mg
Spec. activity ([4]; 30° C., 0.5 h): 169.66 U/mg
Spec. activity ([4]; 30° C., 1 h): 158.01 U/mg
Spec. activity ([4]; 30° C., 2 h): 154.62 U/mg
Spec. activity ([4]; 30° C., 4 h): 145.77 U/mg
Spec. activity ([4]; 30° C., 6 h): 147.18 U/mg
Spec. activity ([4]; 30° C., 24 h): 119.96 U/mg
Spec. activity ([4]; 37° C., 0 h): 188.56 U/mg
Spec. activity ([4]; 37° C., 0.5 h): 155.20 U/mg
Spec. activity ([4]; 37° C., 1 h): 164.39 U/mg
Spec. activity ([4]; 37° C., 2 h): 156.17 U/mg
Spec. activity ([4]; 37° C., 4 h): 156.84 U/mg
Spec. activity ([4]; 37° C., 6 h): 156.21 U/mg
Spec. activity ([4]; 37° C., 24 h): 93.93 U/mg
Spec. activity ([4]; 41° C., 0 h): 188.56 U/mg
Spec. activity ([4]; 41° C., 0.5 h): 151.96 U/mg
Spec. activity ([4]; 41° C., 1 h): 154.22 U/mg
Spec. activity ([4]; 41° C., 2 h): 149.12 U/mg
Spec. activity ([4]; 41° C., 4 h): 146.59 U/mg
Spec. activity ([4]; 41° C., 6 h): 149.39 U/mg
Spec. activity ([4]; 41° C., 24 h): 93.30 U/mg
Spec. activity ([4]; 44° C., 0 h): 188.56 U/mg
Spec. activity ([4]; 44° C., 0.5 h): 158.12 U/mg
Spec. activity ([4]; 44° C., 1 h): 150.15 U/mg
Spec. activity ([4]; 44° C., 2 h): 129.07 U/mg
Spec. activity ([4]; 44° C., 4 h): 115.07 U/mg
Spec. activity ([4]; 44° C., 6 h): 83.35 U/mg
Spec. activity ([4]; 50° C., 0 h): 188.56 U/mg
Spec. activity ([4]; 50° C., 0.5 h): 50.49 U/mg
Spec. activity ([4]; 50° C., 1 h): 3.05 U/mg
Spec. activity ([4]; 50° C., 2 h): 2.35 U/mg
Spec. activity ([4]; RT (23° C.), 0 h): 188.56 U/mg
Spec. activity ([4]; RT (23° C.), 0.5 h): 145.67 U/mg
Spec. activity ([4]; RT (23° C.), 1 h): 148.67 U/mg
Spec. activity ([4]; RT (23° C.), 2 h): 144.05 U/mg
Spec. activity ([4]; RT (23° C.), 4 h): 146.39 U/mg
Spec. activity ([4]; RT (23° C.), 6 h): 141.06 U/mg
Spec. activity ([4]; RT (23° C.), 24 h): 125.68 U/mg
